Data reported in patent publication US20160009823A1 (Hoffmann-La Roche, published 2016).

B1: AKH-5 (bispecific antibody)
chain: QVQLLQSGAELKKPGESLKISCKGSGYSFTSYWIAWVRQMPGKGLEYMGLIYPGDSDTKYSPSFQGQVTISVDKSVSTAYLQWSSLKPSDSAVYFCARHDVGYCSSSNCAKWPEYFQHWGQGTLVTVSSGGGGSGGGGSGGGGSGGGGSQSVLTQPPSVSAAPGQKVTISCSGSSSNIGNNYVSWYQQLPGTAPKLLIYGHTNRPAGVPDRFSGSKSGTSASLAISGFRSEDEADYYCASWDYTLSGWVFGGGTKLTVLGGGGGSGGSLAALTAHQACHLPLETFTRHRQPRGWEQLEQCGYPVQRLVALYLAARLSWNQVDQVIRNALASPGSGGDLGEAIREQPEQARLALTLAAAESERFVRQGTGNDGGGGSGGGGSQVQLVESGGGLVKPGGSLRLSCAASGFTFSDYAMSWIRQAPGKCLEWVSSINIGATYIYYADSVKGRFTISRDNAKNSLYLQMNSLRAEDTAVYYCARPGSPYEYDKAYYSMAYWGQGTTVTVSSGGGGSGGGGSGGGGSGGGGSDIQMTQSPSSLSASVGDRVTITCRASQDIKNYLNWYQQKPGKAPKLLIYYSSTLLSGVPSRFSGSGSGTDFTLTISSLQPEDFATYYCQQSITLPPTFGCGTKVEIKHHHHHH
notes: also called <HER2> scFv-PExII-<DIG> scFv-His6; drawn as <Her2> - PExI - <DIG> - 6xHis
B2: <VEGFR2(D1F7)-DIG>_001 (bispecific antibody, human IgG1, kappa)
heavy: not shown
light: QSVLTQPPSASGTPGQRVTISCSGSTSNIGTNTANWFQQLPGTAPKLLIHNNNQRPSGVPDRFSGSKSGTSASLAISGLQSEDEADYYCAAWDDSLNGHWVFGGGTKLTVLRTVAAPSVFIFPPSDEQLKSGTASVVCLLNNFYPREAKVQWKVDNALQSGNSQESVTEQDSKDSTYSLSSTLTLSKADYEKHKVYACEVTHQGLSSPVTKSFNRGEC
B3: recombinant humanized <Dig> IgG antibody (antibody, V domains shown)
VH: QVQLVESGGGLVKPGGSLRLSCAASGFTFSDYAMSWIRQAPGKGLEWVSSINIGATYIYYADSVKGRFTISRDNAKNSLYLQMNSLRAEDTAVYYCARPGSPYEYDKAYYSMAYWGQGTTVTVSS
VL: DIQMTQSPSSLSASVGDRVTITCRASQDIKNYLNWYQQKPGKAPKLLIYYSSTLLSGVPSRFSGSGSGTDFTLTISSLQPEDFATYYCQQSITLPPTFGGGTKVEIKR
notes: also called hu<DIG> IgG; <DIG>hu2; not shown: hinge-CH2-CH3 of human IgG1
B4: hybridoma-derived murine <Dig> 19-11 antibody (antibody, V domains shown)
VH: EVQLVESGGGLVKPGGSLKLSCAVSGFTFSDYAMSWIRQTPENRLEWVASINIGATYAYYPDSVKGRFTISRDNAKNTLFLQMSSLGSEDTAMYYCARPGSPYEYDKAYYSMAYWGPGTSVTVSS
VL: DVQMTQSTSSLSASLGDRVTISCRASQDIKNYLNWYQQKPGGTVKLLIYYSSTLLSGVPSRFSGRGSGTDFSLTITNLEREDIATYFCQQSITLPPTFGGGTKLEIK
notes: also called murine DIG-IgG 19-11; <DIG>M-19-11
B5: bispecific <CD33>-<DIG> antibody (bispecific antibody, human IgG1, kappa)
heavy: not shown
light: DIQLTQSPSTLSASVGDRVTITCRASESLDNYGIRFLTWFQQKPGKAPKLLMYAASNQGSGVPSRFSGSGSGTEFTLTISSLQPDDFATYYCQQTKEVPWSFGQGGTKVEVKEIKRTVAAPSVFIFPPSDEQLKSGTASVVCLLNNFYPREAKVQWKVDNALQSGNSQESVTEQDSKDSTYSLSSTLTLSKADYEKHKVYACEVTHQGLSSPVTKSFNRGEC

What was measured:
[1] = molecular target: T1, recombinantly produced soluble extracellular domain of the RTK Her2 (UniProt P04626 23-652); assay: SPR (BiaCore), zoom; AKH-5 captured, Her2 and siRNA-DIG in both orders
T1 construct: extracellular domain; also called Her2-ECD; Her2ECD

mouse VEGFR2-Fc = molecular target: T2, mouse VEGFR2-Fc; assay: SPR, drawn table under the head 'Affinity for DIG-siRNA' with a Capture column
T2 chain: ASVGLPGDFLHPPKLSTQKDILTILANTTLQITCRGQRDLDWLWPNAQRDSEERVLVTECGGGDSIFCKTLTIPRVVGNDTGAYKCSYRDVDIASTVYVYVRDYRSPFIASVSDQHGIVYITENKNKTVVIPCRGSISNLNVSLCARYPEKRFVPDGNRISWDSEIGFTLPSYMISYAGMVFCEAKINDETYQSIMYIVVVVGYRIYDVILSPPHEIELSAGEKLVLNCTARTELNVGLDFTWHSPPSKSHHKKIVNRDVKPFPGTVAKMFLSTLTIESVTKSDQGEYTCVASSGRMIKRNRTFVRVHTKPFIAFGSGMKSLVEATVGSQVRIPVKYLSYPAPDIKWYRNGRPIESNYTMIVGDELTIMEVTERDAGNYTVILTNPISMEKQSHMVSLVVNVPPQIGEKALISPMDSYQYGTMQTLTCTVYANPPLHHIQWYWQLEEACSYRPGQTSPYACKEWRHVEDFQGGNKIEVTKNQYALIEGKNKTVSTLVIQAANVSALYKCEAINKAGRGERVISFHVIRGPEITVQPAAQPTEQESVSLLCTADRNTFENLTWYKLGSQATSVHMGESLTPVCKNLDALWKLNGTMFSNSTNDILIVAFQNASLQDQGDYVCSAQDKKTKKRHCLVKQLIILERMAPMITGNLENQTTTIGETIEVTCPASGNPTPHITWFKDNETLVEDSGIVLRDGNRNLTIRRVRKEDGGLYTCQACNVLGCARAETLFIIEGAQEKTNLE

human VEGFR2-Fc = molecular target: T3, human VEGFR2-Fc; assay: as above
T3 chain: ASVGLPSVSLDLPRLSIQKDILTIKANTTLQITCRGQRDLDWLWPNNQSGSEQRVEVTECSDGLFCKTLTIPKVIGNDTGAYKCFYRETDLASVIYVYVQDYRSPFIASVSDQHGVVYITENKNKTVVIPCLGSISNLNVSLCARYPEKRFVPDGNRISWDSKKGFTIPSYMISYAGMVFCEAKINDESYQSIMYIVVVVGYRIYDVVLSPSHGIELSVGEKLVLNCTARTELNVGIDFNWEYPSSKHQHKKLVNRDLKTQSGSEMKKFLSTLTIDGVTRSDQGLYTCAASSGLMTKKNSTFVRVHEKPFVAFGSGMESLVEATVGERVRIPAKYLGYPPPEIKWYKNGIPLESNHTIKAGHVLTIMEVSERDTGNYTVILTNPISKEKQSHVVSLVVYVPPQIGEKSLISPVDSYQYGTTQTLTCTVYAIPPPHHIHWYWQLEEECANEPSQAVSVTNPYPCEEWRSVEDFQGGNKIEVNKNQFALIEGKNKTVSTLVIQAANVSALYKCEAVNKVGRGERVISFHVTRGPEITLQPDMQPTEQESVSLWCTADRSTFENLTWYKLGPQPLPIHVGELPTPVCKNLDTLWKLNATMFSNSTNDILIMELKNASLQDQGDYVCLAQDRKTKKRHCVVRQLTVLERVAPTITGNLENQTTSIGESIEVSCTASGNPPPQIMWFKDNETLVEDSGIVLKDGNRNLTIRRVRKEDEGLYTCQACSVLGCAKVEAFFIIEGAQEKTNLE

[2] = molecular target: mono-digoxygenated protein DIG-myoglobin; assay: SPR (Biacore), DIG-Myoglobin as analyte
[3] = molecular target: digoxygenated protein Dig-BP4; assay: SPR (Biacore), antibody captured by anti-human IgG, DIG-BP4 as analyte
[4] = molecular target: mono-digoxygenated protein DIG-myoglobin; assay: SPR (Biacore), DIG-Myoglobin as analyte, replicate
[5] = molecular target: digoxygenated protein Dig-BP4; assay: SPR (Biacore); unit differs from Table 3 (33 pM)
[6] = molecular target: mono-digoxygenated protein DIG-myoglobin; assay: SPR (Biacore), DIG-Myoglobin as analyte; remark: listed apart in the source
[7] = molecular target: digoxygenated protein Dig-BP4; assay: SPR (Biacore), antibody captured by anti-mouse IgG, DIG-BP4 as analyte
human CD33-Fc fusion = molecular target: T4, human CD33-Fc fusion (human, UniProt P20138 18-259); assay: SPR, <CD33>-<DIG> on human CD33-Fc fusion as ligand, then DIG-siRNA
T4 construct: not shown: Fc part not described
T4 sequence (P20138 18-259): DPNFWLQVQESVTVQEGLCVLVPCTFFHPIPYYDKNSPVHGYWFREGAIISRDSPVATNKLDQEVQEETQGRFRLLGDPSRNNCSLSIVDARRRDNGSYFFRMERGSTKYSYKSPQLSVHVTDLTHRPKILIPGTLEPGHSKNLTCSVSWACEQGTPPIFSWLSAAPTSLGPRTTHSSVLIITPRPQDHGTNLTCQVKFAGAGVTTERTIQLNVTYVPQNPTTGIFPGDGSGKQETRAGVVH

mono-digoxygenated protein DIG-myoglobin, sequence (P68082 2-154): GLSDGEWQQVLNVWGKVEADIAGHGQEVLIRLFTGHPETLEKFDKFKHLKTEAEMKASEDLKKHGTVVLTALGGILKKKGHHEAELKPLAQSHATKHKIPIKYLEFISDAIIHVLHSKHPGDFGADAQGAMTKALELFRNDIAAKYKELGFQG

Row | Binder | Kd [2] | koff [2] | kon [2] | Kd [4] | koff [4] | kon [4] | also measured
1 | B1 |  |  |  |  |  |  | binding result [1]: binds
2 | B2 |  |  |  |  |  |  | binding result (mouse VEGFR2-Fc): binds; binding result (human VEGFR2-Fc): binds
3 | B3 | 15800 pM | 0.00982 s⁻¹ | 620000 M⁻¹ s⁻¹ | 11800 pM | 0.00881 s⁻¹ | 749000 M⁻¹ s⁻¹ | Kd [3]: < 76 pM
4 | B4 | 386 pM | 0.000676 s⁻¹ | 1.75e+06 M⁻¹ s⁻¹ | 295 pM | 0.000675 s⁻¹ | 2.28e+06 M⁻¹ s⁻¹ | Kd [5]: 33000 pM; fold better affinity than <DIG>-hu2 and the disulfide-stabilized <DIG> scFv [6]: ~100 fold; Kd [7]: 33 pM
5 | B5 |  |  |  |  |  |  | binding result (human CD33-Fc fusion): binds
